Source: patent publication US6713247B1, “Human CNS cell lines and methods of use therefor” (Signal Pharmaceuticials, Inc., priority 1996, dated 2004)

What was measured:
clone C2 = assay: Effects of EGF and PDGF on proliferation and survival, clone C2; type: cell-based, human; settings: added to growth medium with FGF-2 and 50% CM, EGF 40 ng/mL, PDGF 20 ng/mL
Method: (§1) EGF and PDGF Enhance Proliferation Rate and Cell Survival. To facilitate the expansion of the human CNS clones, we identified factors that increase the proliferation rate and/or cell survival. To examine the effects of EGF and PDGF on the proliferation and survival of the human CNS clones, 40 ng/mL EGF, 20 ng/mL PDGF or both were added to the standard growth medium, which already contained FGF-2 and 50% CM, and total cell number and BrdU uptake and incorporation were assessed as described above. For clone C2, EGF or PDGF addition increased the total cell number (FIG. 11A) by approximately 2-fold. This increase in cell number was due to enhanced cell viability (decreased cell death), since there were only slight increases in proliferation rate (assessed by BrdU uptake and incorporation, FIG. 11B). […] In the case of clone C10, EGF (but not PDGF) addition increased the total cell number (FIG. 12A) by approximately 40%. […] This increase in cell number was due, at least in part, to enhanced proliferation rates; BrdU uptake and incorporation increase about 2-fold with EGF or EGF+PDGF addition (FIG. 12B), and doubling times (based on cell counts as a function of days in vitro, data not shown) decreased from 3 days (no EGF or PDGF addition) to 2 days (EGF+PDGF addition). […]

clone C10 = assay: Effects of EGF and PDGF on proliferation and survival, clone C10; type: cell-based, human
Method: as §1

B1: EGF: human recombinant epidermal growth factor (protein, UniProt P01133 23-1207, looked up)
Pro-epidermal growth factor: PQHWSCPEGTLAGNGNSTCVGPAPFLIFSHGNSIFRIDTEGTNYEQLVVDAGVSVIMDFHYNEKRIYWVDLERQLLQRVFLNGSRQERVCNIEKNVSGMAINWINEEVIWSNQQEGIITVTDMKGNNSHILLSALKYPANVAVDPVERFIFWSSEVAGSLYRADLDGVGVKALLETSEKITAVSLDVLDKRLFWIQYNREGSNSLICSCDYDGGSVHISKHPTQHNLFAMSLFGDRIFYSTWKMKTIWIANKHTGKDMVRINLHSSFVPLGELKVVHPLAQPKAEDDTWEPEQKLCKLRKGNCSSTVCGQDLQSHLCMCAEGYALSRDRKYCEDVNECAFWNHGCTLGCKNTPGSYYCTCPVGFVLLPDGKRCHQLVSCPRNVSECSHDCVLTSEGPLCFCPEGSVLERDGKTCSGCSSPDNGGCSQLCVPLSPVSWECDCFPGYDLQLDEKSCAASGPQPFLLFANSQDIRHMHFDGTDYGTLLSQQMGMVYALDHDPVENKIYFAHTALKWIERANMDGSQRERLIEEGVDVPEGLAVDWIGRRFYWTDRGKSLIGRSDLNGKRSKIITKENISQPRGIAVHPMAKRLFWTDTGINPRIESSSLQGLGRLVIASSDLIWPSGITIDFLTDKLYWCDAKQSVIEMANLDGSKRRRLTQNDVGHPFAVAVFEDYVWFSDWAMPSVMRVNKRTGKDRVRLQGSMLKPSSLVVVHPLAKPGADPCLYQNGGCEHICKKRLGTAWCSCREGFMKASDGKTCLALDGHQLLAGGEVDLKNQVTPLDILSKTRVSEDNITESQHMLVAEIMVSDQDDCAPVGCSMYARCISEGEDATCQCLKGFAGDGKLCSDIDECEMGVPVCPPASSKCINTEGGYVCRCSEGYQGDGIHCLDIDECQLGEHSCGENASCTNTEGGYTCMCAGRLSEPGLICPDSTPPPHLREDDHHYSVRNSDSECPLSHDGYCLHDGVCMYIEALDKYACNCVVGYIGERCQYRDLKWWELRHAGHGQQQKVIVVAVCVVVLVMLLLLSLWGAHYYRTQKLLSKNPKNPYEESSRDVRSRRPADTEDGMSSCPQPWFVVIKEHQDLKNGGQPVAGEDGQAADGSMQPTSWRQEPQLCGMGTEQGCWIPVSSDKGSCPQVMERSFHMPSYGTQTLEGGVEKPHSLLSANPLWQQRALDPPHQMELTQ
modifications: Pro-epidermal growth factor
- increase in total cell number (clone C2): approximately 2 fold
- increase in BrdU uptake and incorporation (clone C10): approximately 2 fold
- increase in total cell number (clone C10; EGF 40 ng/mL added to growth medium with FGF-2 and 50% CM): approximately 40%
